Measurements taken from patent US20100316642A1, “COMPLEXES OF GRP94 WITH HUMAN IMMUNOGLOBULIN G” (priority 2007, published 2010).

Tests used:
[1] = system: human umbilical vein endothelial cells (HUVECs); assay: Cell growth stimulation of HUVECs (cell count in hemocytometer); type: cell-based; settings: U0126 10 μM alone, no Grp94, control without inhibitor (DMSO 0.1%) 98.01±5.4×10^3
Procedure: Cells were grown in endothelial basal medium supplemented with fetal bovine serum (FBS) at 10%, and after a starving period of 8-10 h in absence of FBS, fresh serum-free medium was added (2 ml) together with Grp94 (at the final concentration of 1 and 10 ng/ml) both alone and with IgG (at the molar ratio of 1:1). After an incubation period of 20 h, the medium was collected and cells detached from duplicate wells and counted in a hemocytometer. Cell viability was evaluated with the trypan blue dye exclusion method; trypan blue only enters cells with an altered, but not intact membrane permeability.
Histograms in FIG. 2(B) represent the number of cells grown with Grp94 (10 ng/ml), both alone and in the presence of IgG, with the addition of the inhibitor U0126 (10 μM, final concentration). […] The inhibitor was added to cell cultures 30 min before the addition of Grp94, both alone and with IgG. […] Asterisks on bars mark statistically significant (*, p<0.05) and highly significant (**, p<0.001) differences with respect to control values (empty bars).

HUVECs [2] = assay: Microscopic evaluation of morphogenic (angiogenic) transformation of HUVECs; type: cell-based, human
[3] = system: HSP90 and HSP70 expression in HUVECs; assay: Expression of HSP90, HSP70 and IgG in HUVEC lysates and conditioned media (SDS-PAGE, Western blotting); type: cell-based, human
Procedure: 2. Effects on the expression of HSP70 and HSP90 in HUVECs: hereafter are described in detail the method and results shown in FIG. 3(A) referred to experiments performed after 20-h incubation of cells in the presence of Grp94 (10 ng/ml), both alone and with IgG, with and without the inhibitor U0126 (10 μM, final concentration). Cells were detached from wells and treated with lysis buffer (50 mM Tris-HCl, pH 8.9, 5 mM EDTA, 380 mM glycine, 2% SDS, 7 mM β-mercaptoethanol). Whole cell lysates were analyzed in SDS-PAGE (10% polyacrylamide gel) followed by Western blotting with anti-HSP90, anti-HSP70 and anti-human IgG Abs. The same quantity of proteins (determined by means of densitometric analysis made on common bands in any lysates) was loaded in each well in SDS-PAGE. Arrows on left mark bands in the lanes that are also shared by nearby lanes on right. […] It is worth noting that band positive for IgG appear at the same masses at which also focuses HSP70. In the presence of the inhibitor, the HSP90 expression is blocked, whereas that of both HSP70 and IgG is still evident in cells after treatment, especially in bands at higher molecular masses. Western blotting for each type of protein is representative of at least three other experiments made on the same samples on different occasions.
The analysis made on cell lysates was also conducted on conditioned media (collected from the same cell cultures on which lysates were obtained, as reported above). Media were collected from duplicate wells, centrifuged for removing cell debris, extensively dialyzed, lyophilized and submitted to electrophoresis analysis followed by Western blotting with anti-HSP90, anti-HSP70 and anti-human IgG Abs (as above, for cell lysates). […] In particular, it was observed that the secreted species of HSP90, HSP70 and IgG were only those induced by treatments with Grp94, especially in complexes with IgG.

human IgG = assay: Dot-blot analysis of Grp94 binding to human IgG; settings: human IgG 4 μg/ml, 8 h room temperature
Procedure: In dot-blot experiments, strips of PVDF membrane were rinsed first in methanol (1 min) and then in de-ionized water (1 min) and let partially dry (3 min). Dots were made with 10 μl of Grp94 (2 μg). Grp94 solution (in bi-distilled water) was used as such (without any treatment) or after boiling for 2 min. Dots with each of the Grp94 solutions (both untreated and boiled) were made in duplicate on membrane strips that were incubated in both absence (control, in TBS only) and presence of human IgG (4 μg/ml) for 8 h at room temperature. Membrane strips were then incubated overnight with a blocking solution of BSA (1%) and Tween (0.2%), followed by washings with TBS (for 1 h) and a further incubation with primary sheep anti-human IgG Abs (2.5 μg/ml). After repeated washings with TBS (for 1 h), membrane strips were then immersed in the solution of secondary Abs (donkey anti-sheep IgG Abs) for 1 h and probed with the detection solution. Control strips with dots of Grp94 incubated with TBS alone were probed with both primary and secondary Abs, and with secondary Abs alone.

PBMC = assay: IgG production from PBMC (anti-human Ig-I125 radioimmunoassay of supernatants); type: cell-based; settings: Grp94 10 ng/ml (maximum of stimulation), 2-week incubation at 37° C.
Procedure: In experiments aimed at measuring IgG concentrations in the medium, PBMCs are seeded at the concentration of 2×10^6 cells/ml (1 ml/well) in a 24- or 48-well flat-bottomed plate (wells of 2 and 1 ml, respectively) incubated at 37° C., in a humidified 95% air, 5% CO2 atmosphere for 2 weeks. Controls included triplicate wells containing medium only (or the diluent in which substances were dissolved, where appropriate), puromicine (100 μg/ml, final concentration, useful for detecting background Abs, i.e., Abs already present in circulation non specifically bound to blood cells), and a standard mitogen (pockweed mitogen, PWM) diluted 1:50 (v:v). Treatment included the addition of Grp94 (at final concentrations of 1, 10 and 100 ng/ml), both alone and in complexes with IgG, and IgG alone (at the final concentration necessary to give a 1:1 molar ratio with Grp94), after each solution was incubated at 37° C. for 1 h.
5. IgG production from PBMC: on a 96-well (200 μl each) flat-bottomed Optiplate (Packard) were laid down 50 μl of anti-human IgG Abs (5 μg/ml in NaHCO3/Na2CO3 buffer, ph 9.6) that were allowed to dry out overnight. Afterwards, 200 μl of PBS with 3% BSA and 0.02% NaN3 were added to saturate aspecific binding sites in Abs. […] The plate was then dried after additional washings and radioactivity measured after the addition of 30 μl of Microscint 20 in each well. […]

HUVECs [4] = assay: Confocal microscopy of HSP90/HSP70 fluorescence and cytoskeleton changes in HUVECs; type: cell-based, human; settings: Grp94 10 ng/ml, serum-free medium
Procedure: Cells were cultured in serum-free medium both without any treatment (control, panels a) and with the addition of both Grp94 alone (10 ng/ml) (panels b) and Grp94 in complexes with IgG (panels c), as specified above. In FIG. 4(A) is shown the fluorescence (evidenced with confocal microscopy) due to anti-HSP90 Abs reacting with HSP90 in both control and treated HUVECs (panels a, b and c on left). Intensity of the fluorescence is increased in cells treated with Grp94, especially when present in complexes with IgG. […] Of interest is the co-location of HSP90 with actin, mostly evident in podosomes, underlined by the pale blue fluorescence due to merging of the green and blue fluorescence of HSP90 and actin, respectively (panels on right). In FIG. 4(B) is shown the fluorescence due to HSP70 following the addition to cell cultures of anti-HSP70 Abs, similarly to what reported for anti-HSP90 Abs. […] Arrow heads in both (A) and (B) mark some of the most significant structural changes in the cell cytoskeleton (inserts in panels on right).

[5] = system: human peripheral blood mononuclear cells (PBMCs); assay: Growth stimulation of PBMCs (cell count after 2-week culture); type: cell-based; settings: 2-week incubation, no FBS, control 10% FBS
Procedure: 4. Effects of stimulation of PBMC: PBMC were obtained from blood using the method of the Ficoll-Paque gradient. A sample of about 25 ml of buffy-coat (concentrated sample of red blood cells, white blood cells and platelets) was obtained after centrifugation of 250 ml of blood. The buffy-coat, containing about 300-600 million of PBMCs (1 million/ml of blood sample), was put in a 50-ml Falcon test-tube with the addition of a volume of RPMI (Roswell Park Memorial Institute) medium equal to half of the buffy-coat volume. The first step of PBMC separation included the preparation of the Ficoll solution in aliquots kept in the dark at +4° C. Five ml of buffy-coat were dropped on 4 ml of Ficoll solution put in Falcon test-tube (14-ml capacity). After centrifugation at 600×g for 30 min in swinging buket rotor, the white disk of PBMCs stratified between the upper […] (red blood cells instead precipitate to the bottom), and was thus recovered with a Pasteur pipette. The fractions of PBMCs were mixed together in a Falcon test-tube (50-ml capacity) and fresh RPMI medium added up to the volume of 50 ml. After centrifugation at 600×g for 15 min, the supernatant was discarded and the pellet washed twice by adding the medium up to the volume of 50 ml, each washing being followed by centrifugation at 300×g for 10 min. After the last centrifugation, the pellet was re-suspended with RPMI medium up to 50 ml of volume.
The count of PBMCs was made on a diluted solution of PBMCs, mixing 50 μl of the starting solution in 250 μl (final volume) of Turk dye solution (in acetic acid). The cell count was made in a common cell-counting chamber.
In experiments aimed at measuring IgG concentrations in the medium, PBMCs are seeded at the concentration of 2×10^6 cells/ml (1 ml/well) in a 24- or 48-well flat-bottomed plate (wells of 2 and 1 ml, respectively) incubated at 37° C., in a humidified 95% air, 5% CO2 atmosphere for 2 weeks. […]

Molecule: N#CC(=C(/N)Sc1ccccc1N)/C(C#N)=C(\N)Sc1ccccc1N [U0126, reference compound]
- number of control cells in presence of the inhibitor [1]: 80.38±4.02×10^3
- morphology of HUVECs with inhibitor on its own (HUVECs [2]; U0126 10 μM alone): pre-angiogenic transformation
- HSP90 expression in treated HUVECs in the presence of the inhibitor ([3]; U0126 10 μM added to cells treated with Grp94 10 ng/ml alone or with IgG): blocked

B1: Grp94: Glucose-regulated protein 94, native, purified from the microsomal fraction of rat hepatocytes (protein, UniProt Q66HD0 22-804, looked up)
Endoplasmin: DDEVDVDGTVEEDLGKSREGSRTDDEVVQREEEAIQLDGLNASQIRELREKSEKFAFQAEVNRMMKLIINSLYKNKEIFLRELISNASDALDKIRLISLTDENALAGNEELTVKIKCDREKNLLHVTDTGVGMTREELVKNLGTIAKSGTSEFLNKMTEAQEDGQSTSELIGQFGVGFYSAFLVADKVIVTSKHNNDTQHIWESDSNEFSVIADPRGNTLGRGTTITLVLKEEASDYLELDTIKNLVRKYSQFINFPIYVWSSKTETVEEPLEEDETAQEEKEEADDEAAVEEEEEEKKPKTKKVEKTVWDWELMNDIKPIWQRPSKEVEEDEYKAFYKSFSKESDDPMAYIHFTAEGEVTFKSILFVPTSAPRGLFDEYGSKKSDYIKLYVRRVFITDDFHDMMPKYLNFVKGVVDSDDLPLNVSRETLQQHKLLKVIRKKLVRKTLDMIKKIADEKYNDTFWKEFGTNIKLGVIEDHSNRTRLAKLLRFQSSHHSTDITSLDQYVERMKEKQDKIYFMAGSSRKEAESSPFVERLLKKGYEVIYLTEPVDEYCIQALPEFDGKRFQNVAKEGVKFDESEKSKESREATEKEFEPLLNWMKDKALKDKIEKAVVSQRLTESPCALVASQYGWSGNMERIMKAQAYQTGKDISTNYYASQKKTFEINPRHPLIRDMLRRVKEDEDDKTVMDLAVVLFETATLRSGYLLPDTKAYGDRIERMLRLSLNIDPEAQVEEEPEEEPEDTTEDTTDDSEQDEEETDAGAEEEEEEQETEKEPTEKDEL
- binding to IgG (dot-blot) (human IgG; Grp94 after boiling for 2 min): did not bind IgG any longer
- binding to IgG (dot-blot) (human IgG; untreated Grp94 2 μg dots): stable binding
- IgG production (radioactivity) (PBMC): 316 cpm
- morphogenic transformation of HUVECs (HUVECs [2]; Grp94 10 ng/ml, alone or with IgG 1:1, not changed significantly by U0126, versus cobblestone morphology of control): angiogenic modifications
- intensity of HSP90 fluorescence (confocal microscopy) (HUVECs [4]; especially in complexes with IgG): increased
- fluorescence of HSP70 (confocal microscopy) (HUVECs [4]; versus control): increased
- HSP90, HSP70 and IgG in conditioned media (Western blotting) ([3]; HUVEC media after 20-h treatment, Grp94 10 ng/ml, no positivity in control media, mostly in complexes with IgG): positive immune reaction
- HSP70 in whole cell lysates (Western blotting) ([3]; HUVECs, Grp94 10 ng/ml, 20-h incubation, constitutive form in any lysates): additional bands referred to inducible species of HSP70
- HSP90 in whole cell lysates (Western blotting) ([3]; HUVECs, Grp94 10 ng/ml, 20-h incubation, not present in control lysates): positivity
- increase in PBMC number with respect to the control value ([5]; Grp94 1 ng/ml): 5%
- increase in PBMC number with respect to the control value ([5]; Grp94 10 ng/ml): 63%
- increase in PBMC number with respect to the control value ([5]; Grp94 100 ng/ml): 47%
